Experimental data taken from US20170119913A1 (3B PHARMACEUTICALS, published 2017).

Biological target: T1, CCR1 (h), C-C chemokine receptor type 1 (human (printed as (h)), UniProt P32246 1-355)
T1 sequence (looked up): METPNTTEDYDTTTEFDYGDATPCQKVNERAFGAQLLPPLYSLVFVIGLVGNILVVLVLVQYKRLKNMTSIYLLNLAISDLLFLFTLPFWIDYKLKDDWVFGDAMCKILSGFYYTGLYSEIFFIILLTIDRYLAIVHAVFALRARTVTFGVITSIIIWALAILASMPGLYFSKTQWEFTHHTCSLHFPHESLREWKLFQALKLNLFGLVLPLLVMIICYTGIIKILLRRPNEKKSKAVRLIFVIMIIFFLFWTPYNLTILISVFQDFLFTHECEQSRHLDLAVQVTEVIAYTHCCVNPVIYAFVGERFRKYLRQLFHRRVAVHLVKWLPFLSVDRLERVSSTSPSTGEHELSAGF
Assay: Cerep ExpresSProfile radioligand competition binding, reference compound (agonist radioligand)

B1: MIP-1alpha (ligand, UniProt P10147 24-92, looked up)
chain: SLAADTPTACCFSYTSRQIPQNFIADYFETSSQCSKPGVIFLTKRSRQVCADPSEEWVQKYVSDLELSA
- Ki: 0.041 nM
